One molecule from US20110177074A1 (ZymoGenetics, published 2011) can be followed below.

The target of experiment [1] is T1, human VEGF-A165 (human, UniProt P15692 207-395).
T1 construct: R&D Systems; homodimer; also called recombinant human VEGF-A
The experiment can be described thus: SPR, VEGF-A immobilised, positive control, 1:1 dissociation fit.

Experiment [2] addresses T1, human VEGF-A165. The experiment in a line: SPR (Biacore T100), VEGF-A immobilised, VEGFR-2-Fc5 analyte, bivalent analyte fit.

B1: human VEGFR-2-Fc5 (Fc fusion)
chain: not shown
notes: also called VEGF Receptor-2
With B1, in the experiment with human VEGF-A165 [1], the koff was around 0.0002 s⁻¹. Besides, in the experiment with human VEGF-A165 [2], the Ka came to 1e+08 M⁻¹, the Kd worked out at 10 nM, the koff amounted to 0.0002 s⁻¹ and the on-rate constant (kon) was 20000 M⁻¹ s⁻¹.
